Assay [1] has as its target T1, human P-cadherin expressed on the cell surface (human, UniProt P22223 108-829).
T1 construct: also called SW480-huPcad; CHO-huPcad
In words: cell ELISA, H1650 cells.

A further assay has as its target T2, huP-cad-ECD (human, UniProt P22223 108-654).
T2 construct: extracellular domain; also called recombinant human P-cadherin; human P-cadherin-ECD
The experiment in a line: ELISA, recombinant protein.

For another assay, the target named is T3, huP-cad-ECD biotinylated (human, UniProt P22223 108-654, biotinylated (sites not given)).
T3 construct: extracellular domain
T3 sequence (P22223 108-654): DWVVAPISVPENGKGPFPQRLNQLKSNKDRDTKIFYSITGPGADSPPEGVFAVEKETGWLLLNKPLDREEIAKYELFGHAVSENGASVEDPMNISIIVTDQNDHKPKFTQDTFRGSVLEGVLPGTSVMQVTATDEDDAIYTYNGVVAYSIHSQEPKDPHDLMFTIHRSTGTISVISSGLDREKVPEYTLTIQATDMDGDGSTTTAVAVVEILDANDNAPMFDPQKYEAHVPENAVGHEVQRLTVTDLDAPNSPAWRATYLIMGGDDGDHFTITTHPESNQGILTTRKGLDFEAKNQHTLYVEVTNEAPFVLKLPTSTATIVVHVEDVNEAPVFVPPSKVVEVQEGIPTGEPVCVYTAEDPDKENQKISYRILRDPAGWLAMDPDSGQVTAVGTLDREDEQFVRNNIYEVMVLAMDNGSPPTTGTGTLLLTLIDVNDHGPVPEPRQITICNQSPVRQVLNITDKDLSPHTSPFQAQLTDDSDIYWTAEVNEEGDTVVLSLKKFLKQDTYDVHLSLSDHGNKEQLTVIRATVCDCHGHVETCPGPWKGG
In words: ELISA, recombinant protein.

Assay [2] addresses T4, muP-cad-ECD (murine, UniProt P10287 100-647).
T4 construct: extracellular domain; also called murine P-cadherin; murine P-cadherin ECD
T4 sequence (looked up): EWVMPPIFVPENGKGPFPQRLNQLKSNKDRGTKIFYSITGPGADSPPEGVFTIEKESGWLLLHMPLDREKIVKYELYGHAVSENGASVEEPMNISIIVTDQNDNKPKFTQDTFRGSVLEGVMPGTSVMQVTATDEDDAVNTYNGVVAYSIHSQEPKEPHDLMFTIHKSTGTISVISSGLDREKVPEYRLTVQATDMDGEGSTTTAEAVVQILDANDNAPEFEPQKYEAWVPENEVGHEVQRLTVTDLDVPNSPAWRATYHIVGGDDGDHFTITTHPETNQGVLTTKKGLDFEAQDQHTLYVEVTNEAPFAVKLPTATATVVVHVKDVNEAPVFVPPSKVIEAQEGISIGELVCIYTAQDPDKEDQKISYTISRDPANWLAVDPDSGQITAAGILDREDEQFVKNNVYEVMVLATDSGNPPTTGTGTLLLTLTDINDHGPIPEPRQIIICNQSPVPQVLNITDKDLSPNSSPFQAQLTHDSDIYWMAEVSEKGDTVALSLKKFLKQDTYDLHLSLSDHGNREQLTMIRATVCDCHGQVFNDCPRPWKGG
The experiment in a line: ELISA, recombinant protein.

Assay [3] concerns the target T1, human P-cadherin expressed on the cell …. In words: cell ELISA, CHO-huPcad cells.
For assay [4] the target is unchanged. The experiment in a line: cell ELISA, SW480-huPcad cells.
The target in the next assay is T5, P-cadherin ECD1-Fc (human, UniProt P22223 108-215).
T5 construct: PACE was co-transfected for processing of the propeptide, so both are left out here; not shown: cleavable linker; hinge and CH2 and CH3 domains of human IgG1
T5 sequence (P22223 108-215): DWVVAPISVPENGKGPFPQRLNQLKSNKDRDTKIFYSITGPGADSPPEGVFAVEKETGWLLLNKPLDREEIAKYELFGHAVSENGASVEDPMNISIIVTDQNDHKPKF
The experiment in a line: protein ELISA.

For a further assay, the target named is T6, P-cadherin ECD1-2-Fc (human, UniProt P22223 108-328).
T6 construct: Signal peptide and pro-peptide of the construct left out (see ECD1-Fc); not shown: cleavable linker; hinge and CH2 and CH3 domains of human IgG1
T6 sequence (P22223 108-328): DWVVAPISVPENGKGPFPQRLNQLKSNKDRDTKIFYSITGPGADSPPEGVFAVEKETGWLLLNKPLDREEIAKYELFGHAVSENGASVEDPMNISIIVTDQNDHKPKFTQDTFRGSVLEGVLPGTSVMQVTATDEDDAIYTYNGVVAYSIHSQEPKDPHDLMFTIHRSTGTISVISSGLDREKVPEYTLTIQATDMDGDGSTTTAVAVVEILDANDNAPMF
In words: protein ELISA.

The target of assay [5] is T4, muP-cad-ECD. The experiment in a line: SPR Biacore.
In assay [6] the target is T7, cynomolgus monkey P-cadherin ECD (cynomolgus monkey).
T7 construct: extracellular domain; also called cyno P-cadherin ECD; Cyno P-cadherin
In words: SPR Biacore.

The target of assay [7] is T1, human P-cadherin expressed on the cell …. In words: cell-based or functional assay.
In assay [8] the target is T7, cynomolgus monkey P-cadherin ECD. In words: SPR Biacore pH 7.4.
The target is the same in assay [9]. The experiment in a line: SPR Biacore affinity.
The target is the same in assay [10]. The experiment in a line: SPR Biacore, average.
In assay [11] the target is T1, human P-cadherin expressed on the cell …. The experiment in a line: cell-based or functional assay. The source holds these as a separate data set.
In assay [12] the target is T7, cynomolgus monkey P-cadherin ECD. In words: SPR Biacore pH 7.4, average.
The target is the same in assay [13]. The experiment in a line: SPR Biacore affinity. This is another data set of the same source.
Assay [14] concerns the target T1, human P-cadherin expressed on the cell …. The experiment in a line: cell-based or functional assay. The source holds these as a separate data set.

Numbering of substitutions follows the chain as printed. Several values for one entry are separate records, joined by “and”; a condition that tells them apart may be missing. Identical values can stand only once. Like-named read-outs stand apart in the source and are kept apart here.

T1 sequence (P22223 108-829): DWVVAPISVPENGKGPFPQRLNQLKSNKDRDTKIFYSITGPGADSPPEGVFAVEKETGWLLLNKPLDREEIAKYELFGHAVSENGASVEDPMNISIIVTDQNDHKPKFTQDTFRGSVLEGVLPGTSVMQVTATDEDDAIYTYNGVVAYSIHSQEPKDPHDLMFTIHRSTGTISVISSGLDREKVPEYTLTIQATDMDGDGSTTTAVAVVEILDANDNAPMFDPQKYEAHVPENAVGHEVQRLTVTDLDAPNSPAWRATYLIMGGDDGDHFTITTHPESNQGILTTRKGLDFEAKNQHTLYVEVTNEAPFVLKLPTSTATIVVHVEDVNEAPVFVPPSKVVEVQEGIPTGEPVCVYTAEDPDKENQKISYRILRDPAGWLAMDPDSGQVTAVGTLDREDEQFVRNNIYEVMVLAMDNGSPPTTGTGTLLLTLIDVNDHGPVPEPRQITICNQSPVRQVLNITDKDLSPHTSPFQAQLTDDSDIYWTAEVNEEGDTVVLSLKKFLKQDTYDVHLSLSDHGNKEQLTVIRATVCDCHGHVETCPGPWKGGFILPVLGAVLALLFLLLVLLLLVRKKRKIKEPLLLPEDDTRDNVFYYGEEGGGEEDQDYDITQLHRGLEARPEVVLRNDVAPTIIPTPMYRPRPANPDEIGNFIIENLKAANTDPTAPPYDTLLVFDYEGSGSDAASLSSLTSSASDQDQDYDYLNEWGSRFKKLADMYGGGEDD
T2 sequence (P22223 108-654): as the sequence (P22223 108-654) above

B1: 35 scFv-Fc (Fc fusion)
VH: EVQLVQSGAEVKKPGASVKVSCKASGYTFTSYGISWVRQAPGQGLEWMGWISAYNGNTNYAQKLQGRVTMTTDTSTSTAYMELRSLRSDDTAVYYCATIDTASAFDIWGQGTMVTVSS
VL: QSVLTQPPSVSAAPGQKVTISCSGSSSNIGNNYVSWYQQLPGTAPKLLIYDNNKRPSGIPDRFSGSKSGTSATLGITGLQTGDEADYYCGTWDSSLSAVVFGGGTKLTVL
notes: also called P-CAD 35; P-cadherin clone 35 scFv-Fc
Regarding B1, the 50% effective concentration (EC50) in [1] was determined as 0.163 nM; with huP-cad-ECD it was 2.5 nM; with huP-cad-ECD biotinylated it was 0.0176 nM; in assay [3] it was 0.276 nM; in [4] it was 0.173 nM. For the same molecule, the binding result with muP-cad-ECD [2] was “no binding”.

B2: 33 scFv-Fc (Fc fusion)
VH: B1 VH with E1Q, V2M, T98L, D100G, T101S, A102G, S103V
VL: B1 VL with V99Y, G103T, L107V
notes: also called P-CAD 33; P-cadherin clone 33 scFv-Fc
For the molecule B2, the EC50 is 0.567 nM in [1]; 3.46 nM with huP-cad-ECD; 0.101 nM with huP-cad-ECD biotinylated; 0.493 nM in assay [3]; 0.424 nM in assay [4]. For the same molecule, in the assay with muP-cad-ECD [2], the binding result was “no binding”.

B3: 34 scFv-Fc (Fc fusion)
VH: B1 VH
VL: B1 VL with L4V, V99W
notes: also called P-CAD 34; P-cadherin clone 34 scFv-Fc
For B3, the EC50 in assay [1] was 0.494 nM; with huP-cad-ECD it was 11.2 nM; with huP-cad-ECD biotinylated, 0.194 nM; in assay [3], 0.394 nM; in [4], 0.442 nM. The binding result with muP-cad-ECD [2] is on record as “no binding”.

B4: 153 LP-DART (bispecific antibody)
chain 1: QSVLTQPPSVSAAPGQKVTISCSGSSSNIGNNYVSWYQQLPGTAPKLLIYDNNKRPSGIPDRFSGSKSGTSATLGITGLQTGDEADYYCGTWDSSLSGVVFGGGTKLTVLGGGSGGGGEVQLVESGGGLVQPGGSLRLSCAASGFTFSTYAMNWVRQAPGKGLEWVGRIRSKYNNYATYYADSVKGRFTISRDDSKNSLYLQMNSLKTEDTAVYYCVRHGNFGNSYVSWFAYWGQGTLVTVSSGCPPCPAPEAAGAPSVFLFPPKPKDTLMISRTPEVTCVVVDVSHEDPEVKFNWYVDGVEVHNAKTKPREEQYNSTYRVVSVLTVLHQDWLNGKEYKCKVSNKALPAPIEKTISKAKGQPREPQVCTLPPSREEMTKNQVSLWCLVKGFYPSDIAVEWESNGQPENNYKTTPPVLDSDGSFFLYSKLTVDKSRWQQGNVFSCSVMHEALHNHYTQKSLSLSPG
chain 2: QAVVTQEPSLTVSPGGTVTLTCRSSTGAVTTSNYANWVQQKPGQAPRGLIGGTNKRAPWTPARFSGSLLGGKAALTITGAQAEDEADYYCALWYSNLWVFGGGTKLTVLGGGGSGGGGEVQLVQSGAEVKKPGASVKVSCKASGYTFTSYGISWVRQAPGQGLEWMGWISAYNGNTNYAQKLQGRVTMTTDTSTSTAYMELRSLRSDDTAVYYCATIDTANAFGIWGQGTMVTVSSGCPPCPAPEAAGAPSVFLFPPKPKDTLMISRTPEVTCVVVDVSHEDPEVKFNWYVDGVEVHNAKTKPREEQYNSTYRVVSVLTVLHQDWLNGKEYKCKVSNKALPAPIEKTISKAKGQPREPQVYTLPPCREEMTKNQVSLSCAVKGFYPSDIAVEWESNGQPENNYKTTPPVLDSDGSFFLVSKLTVDKSRWQQGNVFSCSVMHEALHNHYTQKSLSLSPG
Consider B4, for which the binding result with P-cadherin ECD1-Fc, in the assay with P-cadherin ECD1-2-Fc and in the assay with muP-cad-ECD [5] was “no binding” throughout. For the same molecule, the Kd is 0.683 nM and 0.359 nM in assay [6]; 0.683 nM and 0.359 nM in assay [8]; 0.521 nM in [9]; 0.521 nM in assay [10]; 0.521 nM in assay [12]. The off-rate (koff) in assay [6] was 0.0002 s⁻¹ and 0.000209 s⁻¹; in assay [8], 0.0002 s⁻¹ and 0.000209 s⁻¹. Further, the on-rate constant (kon) in assay [6] was 293000 M⁻¹ s⁻¹ and 581000 M⁻¹ s⁻¹; in assay [8] it was 293000 M⁻¹ s⁻¹ and 581000 M⁻¹ s⁻¹. Besides, the t½ in assay [6] was 54.4 min and 52.2 min; in [8], 54.4 min and 52.2 min. Besides, the “CTL assay on CHO P-cadherin cells, cell viability after 48 hours, EC50” value in assay [7] was 0.00041 nM. The “DU145 CTL (LDH) EC50” value in [11] came to 0.0006 nM. The “HCT116 CTL (Luc) EC50” value in [11] was 0.0004 nM.

B5: 154 LP-DART (bispecific antibody)
chain 1: B4 chain 1 with G98S, V99Y, G103T, L107V
chain 2: B4 chain 2 with N221T, G224D
As to B5, in assay [6], the equilibrium dissociation constant (Kd) is 5.47 nM and 5.53 nM; the dissociation rate constant (koff) was 0.00332 s⁻¹ and 0.00343 s⁻¹; the kon was 607000 M⁻¹ s⁻¹ and 620000 M⁻¹ s⁻¹; the t½ was 3.27 min and 3.18 min. Also, the Kd in assay [9] is 5.5 nM. The same molecule displayed a Kd in [10] of 5.5 nM. Further, in assay [11], the “DU145 CTL (LDH) EC50” value was determined as 0.0017 nM and the “HCT116 CTL (Luc) EC50” value was 0.0072 nM.

B6: 153 VF-DART (bispecific antibody)
chain 1: QSVLTQPPSVSAAPGQKVTISCSGSSSNIGNNYVSWYQQLPGTAPKLLIYDNNKRPSGIPDRFSGSKSGTSATLGITGLQTGDEADYYCGTWDSSLSGVVFGGGTKLTVLGGGSGGGGEVQLVESGGGLVQPGGSLRLSCAASGFTFSTYAMNWVRQAPGKGLEWVGRIRSKYNNYATYYADSVKGRFTISRDDSKNSLYLQMNSLKTEDTAVYYCVRHGNFGNSYVSWFAYWGQGTLVTVSS
chain 2: QAVVTQEPSLTVSPGGTVTLTCRSSTGAVTTSNYANWVQQKPGQAPRGLIGGTNKRAPWTPARFSGSLLGGKAALTITGAQAEDEADYYCALWYSNLWVFGGGTKLTVLGGGGSGGGGEVQLVQSGAEVKKPGASVKVSCKASGYTFTSYGISWVRQAPGQGLEWMGWISAYNGNTNYAQKLQGRVTMTTDTSTSTAYMELRSLRSDDTAVYYCATIDTANAFGIWGQGTMVTVSS
modifications: One interchain disulfide between the Linker 2 cysteines; these linkers are left out of the letters.
notes: not shown: The C-terminal cysteine Linker 2 on each chain
In the case of B6, in assay [8], the Kd was 0.332 nM and 0.304 nM; the koff is 0.00024 s⁻¹ and 0.000229 s⁻¹; the kon is 722000 M⁻¹ s⁻¹ and 752000 M⁻¹ s⁻¹; the t½ was 45.4 min and 47.6 min. The same molecule registered a Kd in assay [13] of 0.31 nM. For the same molecule, in assay [14], the “DU145 CTL (LDH) EC50” value stood at 0.0004 nM and the “HCT116 CTL (Luc) EC50” value was 0.0005 nM. Moreover, the Kd in assay [12] was 0.318 nM.

B7: 154 VF-DART (bispecific antibody, not shown: small tags and cut ends)
chain 1: B6 chain 1 with G98S, V99Y, G103T, L107V
chain 2: B6 chain 2 with N221T, G224D
B7 came in with a Kd in assay [13] of 2.85 nM. Besides, in assay [14], the “DU145 CTL (LDH) EC50” value came out at 0.0024 nM and the “HCT116 CTL (Luc) EC50” value was 0.008 nM.

The values are drawn from patent publication US20160002357A1 (Pfizer, published 2016).
